Usually IC50 stands for the concentration that gives 50% inhibition. A low value points to inhibition by little substance.

From US20110212106A1, “HIV-1 NE[…] USES THEREOF” (priority 2010, published 2011) come the findings set out here.

Experiment [1] deals with IIIB gp120 envelope protein (HIV-1 IIIB) (UniProt P03375). As to the kind of experiment: ELISA, inhibition of gp120 binding to solid-phase sCD4. In general terms: In an ELISA, binding on a coated surface is turned into a signal by an enzyme label.
The target in experiment [2] is HIV-1 gp120 (strain not stated at these places) (HIV-1). As to the kind of experiment: competition ELISA on immobilized gp120, competitor labeled HJ16.

The substance b12 (antibody) displayed an IC50 in experiment [1] of 1.16 µg/mL. The substance also displayed a plateau of inhibition in experiment [2] of 80%.
